Assay: yeast display, Sf9 membrane polyspecificity reagent, FACS + sequencing; frameworks hold sequencing errors
Summary of the method: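 Nanobodies from a synthetic yeast display library (Saccharomyces cerevisiae BJ5465), induced 36–48 hours with galactose, were stained 1 hour at 4 °C with 10% biotinylated, detergent-solubilized Sf9 membrane reagent, enriched on streptavidin microbeads, then FACS-sorted. Anti-HA (expression) and streptavidin (reagent binding) fluorescence set low and high (top ~1%) gates. Polyreactivity labels come from the gate of origin. Genes were colony-PCR amplified, MiSeq 2 × 250 sequenced and filtered by CDR length.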

Row | Sequence | polyreactivity (PSR sort gate)
1 | QVQLVESGGGLVQAGGSLRLSCAPSGSTFYSYAMGGYRQAPGKERELVAAITVSGTSTYYADSVKGRFTISRDNAKNTVYLQMNSLKPEDTAVYYCAARPRRRYYGYDSWGQGTQVTVSS | high polyreactivity
2 | QVQLVESGGGLGQAGGSLRLSCAASGRILYIYVMGRYRQARGKERELVAALTWDDGDTYYADSVKGRFTISRDNAKITVYLQMNSLKPEDTAVYNCNAGGQGVATITGHTPEFDYWGQGTQVTVSS | low polyreactivity
3 | QVQLVESGGGLVQAGGSLRLSCAASGITLGAYAMGWYRQAPGKERELVAAISRSGGSTYYADSVKGRFTISRDNAKNTVYLQMNSLKPEDTAVYYCNAGITHGYDYWGQGTQLTVSS | high polyreactivity
4 | QVQLVESGGGLVQAGGSLRLSWAASGFIFPYNAMGWYRQAPGKERELVAVISSSGGDTYYADSVKGRFTISRDNAKNTVYLQMNSLIPVDTAVYYCAADSYYGYEYWGQGTQVTVSS | low polyreactivity
5 | QVLLVESRGGLVQAGGSLRLSCAASGGTFSYYAMGWYRQAPAKERELVAAISASGGSTYYADSVKGRFTISRDNAMNTVYLQRNSLKPEDTAVYYCNARYPYYFYAGNYWGQGTQVTVSS | low polyreactivity
6 | QVQLVESGGGLVQAGGSLRLSSAASGITFSEYAMGRYRQAPGKERELVATITSGGSTNYADSVKGRFTISRDNAKNTVYLQMNSLKPEDTAVYYCNALDGTVDFSGWYDDWGQGTQVTVSS | low polyreactivity
7 | QVLLVESGGGLVQAGGSLRIICAASGLTFSDYAMRWYRQAPGKERELVAGISSGGSTYYADSVKGRFTISRDNAKNTVYLQMNSLKPEDTAVYYCAATRYNRWPIKFDYWGQGTQVTVSS | high polyreactivity
8 | QVQLVESGGGLVQAGGSLRLSCAASGRIFAYNAMGLYRQAPGKERELVADISSGGNTYYADSVKGRFTISRDNAKNTVYLQMNSLKPEDTAVYYCAKYTYDYWGQGTQVTVSS | low polyreactivity
9 | QVQLVESGGGLVQAGGSLSLSCAASGRTFSQYAMGWYRPAPGTERELVAAIDRTGDSTYYADSVKGRFTISRDNAKNTVYLQMNSLKPEDTAVYYCNRRYTRVRSRKGYDYWGQGTQVTVSS | high polyreactivity
10 | QVQLVESGGGLVQAGGSLRLSCAASGSTFVYNAMGWYRQAPGKERELVAAISSGGSTYYADSVKGRFTISRDNAKNTVYLQMNSLKPEDTAVYYCNARGSWRRDKYGTYYRYDYWGQGTQVTVSS | high polyreactivity
11 | QVQLVESGAGLVQAGGSLRLSCAPSGFIFFVNAMGWYRQAPGKERELVADITKIDGTTYYADSVKGRFTISRDNAKNTVYLQMNSLKPEDTAVYYCAAGYRQLSSVRDYDYWGQGTQVTVSS | low polyreactivity
12 | QDQLEESGGGLVQAGGSLRLSCAASGRIFFRNLMGAYRQPTGKERELVATITSGGRTYYADSVKGRFTISRDNAKNTVYLQMNSLKPVDTAVYYCATVYRPGGVYGYEYWGQGTQVTVSS | high polyreactivity
13 | QVQLVESGGGLVQAGGSLRLSCAASGLIFDSYAMGWYRQAPGKERELVAAITYTGGSTYYADSVKGRFTISRDNAKNTVYLQMNSLKPEDTAVYYCAARRQRDRYGYWGQGTQVTVSS | high polyreactivity
14 | QVQLVESGGGLVQAGGSLRLSCAASGFTFARNGMGWYRQAPGKEREFVAAITRSGGRTYYADSVKGRFTISRDNAKNTVYLQMNSLKPEDTAVYYCAAGYRGIGMNYWGQGTQVTVSS | high polyreactivity
15 | QVQLVESGGGLVQAGGSLRLSCAASGRIFTYYAMGWYRQAPGKERELVAAISSGGSTYYADSVKGRFTISRDNAKNTVYLQMNSLKPEDTAVYYCAAEPWYYPYLSPTYGYWGHGTQVTVSS | low polyreactivity
16 | QVQLEESGGGLVQAGGSLRLSCAASGSIFGTYAMGWYRQAPGKEREFVAAISWSDGSTYYADSVKGRFTISRDNAKNTVYLQMNSLKPEDTAVYYCAVRRVGSIYIDRYIYVVADYDYWGQGTQVTVSS | low polyreactivity
17 | QVQLVESGGGLVQAGGSIRLSCAASGFIFGLYDMGWYRQAPGKERELDAAISWSGGSTYYADSVKGRFTISRDNAKNTVYLQMNSLKPEDTAVYYCNKDLYADGEYNYDYWGQGTQVTVSS | low polyreactivity
18 | QVQLVESGGGLVQAGGSLRLSCAASGSIFARYAMGWYRQAPGKERELVATISYRGSSTYYADSVKGRFKISRDNAKNTVYLQMNRLKPEDTAVYSCAARTYRRIYAYYRLDYWGQGTQVTVSS | low polyreactivity
19 | QFQLVESGGGLVQAGGSLRLSCAASGFIFAVNAMGWYRQAPGKERELVAAISSSGTTNYADSVKGRFTISRDNAKNTVYLQMNSLKPEDTAVYYCNKRWRDKYPQYDYWGQGTQVTVSS | low polyreactivity
20 | QVQLVESGGGLVQAGGSLRLSSAASGRIFSRNTMGCYRQAPGKERELVAAIRYSGGRTYYADSVKGRFTISRDNAKNTVYLQMNCLKQEDTAVYYCAARWYGQGVSYRMDYWGQGTQVTVSS | high polyreactivity
21 | QFQLVESGGGLVQAGGSLRLSCAASGSTFIGYAMGWYRQAPGKERELVAAITGGGRTNYADSVKGRFTISRDNAKNTVYLQMNSLKPEDTAVYYCAARGVSRGYAKPYYSRGDYWGQGTQVTVSS | low polyreactivity

Row | Sequence | polyreactivity (PSR sort gate)
22 | QVQLVKSGGGLVQAGGSLRLSCAASGIIFWLYDMGWYRQAPGKERELVAVITWSGDSTYADSVKGRFTISRDNAKNTVYLQMNSLKPEDTAVYYCAAREYYRKPYDHWGQGTQVTVSS | high polyreactivity
23 | QDQLVESGGGLVQEGGSLRLSCAAYGSIYRYAMGWNRPAPGKERELVAAINFNGGRTYYADSVNGRFTISRDNAKNTVYLQMTSLKPEDTAVYYCAARISVYSTLPNDFDYWGQGTQVTVSS | high polyreactivity
24 | QVQLVESGGGLVQAGGSLRLSCAASGSTFRLYAMGWYRQAPGKEREFVAAISFRGGSTYYADSVKGRFTISRDNAKNTVYLQMNSLKPEDTAVYYCAADYWTSADPRNIIKYDYWGQGTQVTVSS | high polyreactivity
25 | QVQLVESGGALVQARGSLRLSSAASGSIFPFYAMPSYRQAPGKERELVAAISDRGGSTYYADSVKGRFTISRDNAKNTVYLQMNSLKPEDTAVYYCAVDGYGWGSSSSWFRSLYDYWGQGTQVTVSS | low polyreactivity
26 | QVQLVESGGGLVQAGGSLRLSCAASGSTYEYNAMGWSRQAPGKERELVASSTNYADSVKGRFTISRDNAKNTVYLQMNSLKPEDTAVYYCAREQCVNRNHDYWGQGTQVTVSS | low polyreactivity
27 | QVQLVESGGGLVQAGGSLRLSCAASGSTFGVYAMGWYRQAPGKERELVAAITKRGGDTYYADSVKGRFTISRDNAKNTVYLQMNSLKPEDTAVYYCAAGLYVSYYWYDYWGQGTQVTVSS | high polyreactivity
28 | QVQLVESGGGLVQAGGSLRLSCAASGFIFWSYAMGWYRQAPGKERELVAAISWSGGRTYYADSVKGRFTISRDNAKNTVYLQMNSLKPEDTAVYYCAAVKRYSSQYPALDYWGQGTQVTVSS | high polyreactivity
29 | QVQLVESGGGLVQAGGSLRLSCAASGFTFDGYGMGWYRQAPGKERELVAVITSGGSTKYADSVKGRFTISRDNAKNTVYLQMNSLKPEDTAVYYCAADNRIRGVAFDYWGQGTKVTVSS | low polyreactivity
30 | QVQLVESGIGLVQAGGSLRLSCAASGSTCDFYAMGWYRPAPGKERELVAAITSDGRTNYADSVKGRFTISRDNAKNTVYLQMNSLKPEDTAVYYCAVTYGYEYDYWGQGTQVTVSS | low polyreactivity
31 | QVQLVESGGGLVQAGGSLRLICAASGRTFWSYARGWSRQAPGKERQLVAAIRTSDGITYYADSVKGRFTISRDTAKNTVYLQMNSLKPEDTAVYYCAAENWYKYDYWGQGTQVTVSS | low polyreactivity
32 | QVQLVESGGGVVQAGGSLRLSCAASGSTSYFNVIGWYRPAPGKERELVAAISWSGGSTYADSVKGRFTISRDNAKNTVYLQMNSLKREDTAVYYCNKDYGYVQLRFSGPGYYWGQGTQVTVSS | low polyreactivity
33 | QVQLVESGGGLVQAGGSLRLSCAASGSTLHSYAMGWYRQAPGKERELVAAISFRGGSTYADSVKGRFTISRDNAKNTVYLQMNSLKPEDTAVYYCAAYSVYTMYWGQGTQVTVSS | low polyreactivity
34 | QVQLVESGGGLVQAGGSLRLSCAASGSILREYTMGWSRQAPGKEMELVAAITYSGDSTYYADSVKGRFTISRDNAKNTVYLHMNSLKPEDTAVYYCNKKYRSRWQGPFDYWGQGTLVTVSS | high polyreactivity
35 | QVQLVESGGGLLQAGGSLRLSCAASGFILNSYAMGWYRQAPGKERELVAAITRSGGNTFYADSVKGRFKISRDNAKNTVYLQMNSLQPEDTAVYYCYAYFTYWSQLYYWGQGTQVTVSS | high polyreactivity
36 | QVQLVESGGGLVQAGGSLRLSCAASGRTFGNNAMGRYRLAPGKVWELVAAINWSGASTYYADSVKGRFTISRDNAKNTVYLQMNSLKPEDTAVYYCAADYSYIYGFDYWGQGTQVTVSS | low polyreactivity
37 | QVQLVESGGGLVHAGGSLRLSCAASGSTFDPNAMGWYRQAPGKERELVAAISWSGGSTYYADSVKGRFTISRDNAKNTVYLQMNSQKPEYTAVYYCNAQFYVSYSYTNDYWGQGTQVTVSS | low polyreactivity
38 | QVQLVESGGRLVQAGGSLRLRCAASGSTFMSNAMGWYRPAPGKERELVAAITGSGGNTYYADSVKGRFTISRDNAKNTVYLQMNSLKPEDTAVYYCAAVAPRSNYWRGYYYWGQGTQVTVSS | high polyreactivity
39 | QDQLVESGGGLVQAGGSLRLICAASGSIFEPYVMGWYRQAPGKERELVAAIRQTGGSTYYADSVKGRFTISRDNAKNTVYLQMNSLKPEDTAVYYCNAEQNPSGLYDYRGVEGEMGYWGQGTQVTVSS | low polyreactivity
40 | QVQLVESGGGLVQAGGSLRLSSSASGSTFWYYVRGRYRQAPGKERELVAAISTRGDSTYYADSVKGRFTISRDNAKNSVYLQINSLKPEDTAVYYCAKSRQSSGRVRFDYWGQGTEVTVSS | low polyreactivity
41 | QVQLVESGGGLVQAGGSLRLSCAASGSIIGVNAMGWYRQAPGKERELVAAISSTGGSTYYADSVKGRFTISRDNAKNTVYLQMNSLKPEDTAVYYCAAVLIDPDSNLETGGIFDYWGQGTQVTVSS | low polyreactivity

Reference: the nanobody polyreactivity screen of Harvey et al. (2022)
